From article PMC3597514

Assays:
[1] = biological target: NbSPL6-Yc (N. benthamiana); assay: split reporter (BiFC, NanoBiT); as a5, but with tCFP alone in place of tCFP-p50-U1
[2] = biological target: NbSPL6-Yc (N. benthamiana); assay: split reporter (BiFC, NanoBiT); as a5, but with the non-eliciting p50-Ob-tCFP in place of tCFP-p50-U1; percent of cells as the ratio to the cells seen with tCFP-p50-U1

B1: gN-Yn (receptor)
chain: MASSSSSSRWSYDVFLSFRGEDTRKTFTSHLYEVLNDKGIKTFQDDKRLEYGATIPGELCKAIEESQFAIVVFSENYATSRWCLNELVKIMECKTRFKQTVIPIFYDVDPSHVRNQKESFAKAFEEHETKYKDDVEGIQRWRIALNEAANLKGSCDNRDKTDADCIRQIVDQISSKLCKISLSYLQNIVGIDTHLEKIESLLEIGINGVRIMGIWGMGGVGKTTIARAIFDTLLGRMDSSYQFDGACFLKDIKENKRGMHSLQNALLSELLREKANYNNEEDGKHQMASRLRSKKVLIVLDDIDNKDHYLEYLAGDLDWFGNGSRIIITTRDKHLIEKNDIIYEVTALPDHESIQLFKQHAFGKEVPNENFEKLSLEVVNYAKGLPLALKVWGSLLHNLRLTEWKSAIEHMKNNSYSGIIDKLKISYDGLEPKQQEMFLDIACFLRGEEKDYILQILESCHIGAEYGLRILIDKSLVFISEYNQVQMHDLIQDMGKYIVNFQKDPGERSRLWLAKEVEEVMSNNTGTMAMEAIWVSSYSSTLRFSNQAVKNMKRLRVFNMGRSSTHYAIDYLPNNLRCFVCTNYPWESFPSTFELKMLVHLQLRHNSLRHLWTETKHLPSLRRIDLSWSKRLTRTPDFTGMPNLEYVNLYQCSNLEEVHHSLGCCSKVIGLYLNDCKSLKRFPCVNVESLEYLGLRSCDSLEKLPEIYGRMKPEIQIHMQGSGIRELPSSIFQYKTHVTKLLLWNMKNLVALPSSICRLKSLVSLSVSGCSKLESLPEEIGDLDNLRVFDASDTLILRPPSSIIRLNKLIILMFRGFKDGVHFEFPPVAEGLHSLEYLNLSYCNLIDGGLPEEIGSLSSLKKLDLSRNNFEHLPSSIAQLGALQSLDLKDCQRLTQLPELPPELNELHVDCHMALKFIHYLVTKRKKLHRVKLDDAHNDTMYNLFAYTMFQNISSMRHDISASDSLSLTVFTGQPYPEKIPSWFHHQGWDSSVSVNLPENWYIPDKFLGFAVCYSRSLIDTTAHLIPVCDDKMSRMTQKLALSECDTESSNYSEWDIHFFFVPFAGLWDTSKANGKTPNDYGIIRLSFSGEEKMYGLRLLYKEGPEVNALLQMRENSNEPTEHSTGIRRTQYNNRTSFYELING
percent of cells with citrine fluorescence (with tCFP alone) (% of the cells) [1]: 10
percent of cells with citrine fluorescence (with p50-Ob-tCFP) (% of the cells) [2]: 13
